According to publication PMC8778164, “Towards Complete Tumor Resection: Novel Dual-Modality Probes for Improved Image-Guided Surgery of GRPR-Expressing Prostate Cancer” (Pharmaceutics, 2022):
Like-named read-outs stand apart in the source and are kept apart here.

How the values were obtained:
[1] = Stability in mouse serum at 37 °C (iTLC); format: in vitro ADME
Protocol: Stability in PBS was determined by incubating 20 µL of the labeled compounds (∼11 MBq) in PBS (80 µL) at 37 °C. Radiochemical purity was determined by iTLC at 30 min, 1 h, 2 h and 4 h. Stability in the serum was carried out by adding 70 µL of the labeled compound (∼35 MBq) to 330 µL of mouse serum (Merck, Haarlerbergweg, The Netherlands). The mixture was incubated at 37 °C. At different time points (30 min, 1 h, 2 h and 4 h), an aliquot of the mixture (50 µL) was added to 50 µL ACN. The vial was vortexed and centrifuged at 10,000 rpm for 20 min and the supernatant was analyzed by iTLC.

[2] = Ex vivo biodistribution after SPECT/CT scanning; format: in vivo, mouse; details: mouse, iv, ~3 h p.i.; for tissue to tissue ratio: male, Balb/c nu/nu, total radioactivity, radioactivity; for tissue uptake at 3 h: PC-3 xenograft mice, i.v.
Protocol: (§1) Seven-week-old male Balb/c nu/nu-specific and opportunistic pathogen-free (SOPF) mice (Janvier Labs, Le Genest-Saint-Isle, France) were housed in individually ventilated cages, with 4 mice per cage. Upon arrival, mice were acclimated for 1 week, with access to food and water ad libitum. Mice were subcutaneously inoculated on the right shoulder with PC-3 cells (5 × 10^6 cells suspended in 100 µL of 1/3 Matrigel (Corning Inc., Corning, NY, USA) and 2/3 Hank’s balanced salt solution (Gibco). PC-3 xenografts were allowed to grow for 3 weeks. Tumor sizes were 391 ± 173 mm^3 at the start of the studies. All animal experiments were approved by the Animal Welfare Committee of the Erasmus MC and were conducted in agreement with institutional guidelines (license number: AVD101002017867, 28 September 2017).
(§2) To determine the biodistribution of the compounds after imaging (~3 h p.i.), blood was collected via cardiac puncture under isoflurane/O2 anesthesia, after which the mice were sacrificed. The tumor and organs of interest (prostate, pancreas, spleen, liver, GI tract (stomach, small intestine, cecum, large intestine), kidneys, lungs, heart, muscle, bone, and brain) were excised, washed in PBS and blotted dry. The stomach, intestines and cecum were emptied of their contents. The tumor was cut in half; one half was fresh-frozen for further analysis and the other half was collected for ex vivo optical imaging and radioactivity measurements. After imaging, the blood, tumor, and relevant organs were weighed and measured in a γ-counter. To determine the total injected radioactivity per animal, samples of the injected solutions were measured as well. The percentage of injected dose per gram (%ID/g) was determined for each tissue sample and corrected for both the injected volume and %ID present at the injection site (the tail). Because the low weight of the prostate limited accurate organ weight measurements, the average prostate weight of all animals was used.

[3] = test system: PC-3-xenograft Balb/c nu/nu mice; experiment: Ex vivo biodistribution after SPECT/CT scanning; format: in vivo, mouse; details: radioactivity, ~3 h p.i.
Protocol: as §1, §2

[4] = blocked with 150 nmol unlabeled NeoB, n = 1

## CC(C)CC(CC(C)C)NC(=O)[C@H](Cc1c[nH]cn1)NC(=O)CNC(=O)[C@@H](NC(=O)[C@H](C)NC(=O)[C@H](Cc1c[nH]c2ccccc12)NC(=O)[C@H](CCC(N)=O)NC(=O)[C@@H](Cc1ccccc1)NC(=O)CCOCCOCCOCCOCCNC(=O)[C@H](CCCCNC(=O)OC1CCCC2C=NN=C(c3ccc(CNC(=O)CCCCC[N+]4=C(/C=C/C=C/C=C5N(C)c6ccc(S(=O)(=O)O)cc6C5(C)C)C(C)(C)c5cc(S(=O)(=O)[O-])ccc54)cc3)C2CC1)NC(=O)CN1CCN(CC(=O)O)CCN(CC(=O)O)CCN(CC(=O)O)CC1)C(C)C (stereo partly shown) [[^111In]In-15, metal not drawn]
[1]; intact labeled ligand after incubation at 37 °C in mouse serum, 30 min, n = 1
  Stability in Mouse Serum (%) 30 min: 96.9%
[1]; intact labeled ligand after incubation at 37 °C in mouse serum, 1 h, n = 1
  Stability in Mouse Serum (%) 1 h: 96.7%
[1]; intact labeled ligand after incubation at 37 °C in mouse serum, 2 h, n = 1
  Stability in Mouse Serum (%) 2 h: 96.9%
[1]; intact labeled ligand after incubation at 37 °C in mouse serum, 4 h, n = 1
  Stability in Mouse Serum (%) 4 h: 97.1%
[1]; mouse serum, 4 h
  Protein-Bound Fraction at 4 h (%): 6.5%
[2]; tumor and blood, non-blocked, n = 3, read-out: Tumor-to-blood ratio
  tissue to tissue ratio: 0.38 ± 0.04
[2]; tumor and kidney, blocked with 150 nmol unlabeled NeoB, n = 1, read-out: Tumor-to-kidney ratio
  tissue to tissue ratio: 0.24
[2]; tumor and kidney, non-blocked, n = 3, read-out: Tumor-to-kidney ratio
  tissue to tissue ratio: 0.45 ± 0.04
[2]; tumor and liver, blocked with 150 nmol unlabeled NeoB, n = 1, read-out: Tumor-to-liver ratio
  tissue to tissue ratio: 0.49
[2]; tumor and liver, non-blocked, n = 3, read-out: Tumor-to-liver ratio
  tissue to tissue ratio: 0.78 ± 0.04
[2]; tumor and muscle, blocked with 150 nmol unlabeled NeoB, n = 1, read-out: Tumor-to-muscle ratio
  tissue to tissue ratio: 3.42
[2]; tumor and muscle, non-blocked, n = 3, read-out: Tumor-to-muscle ratio
  tissue to tissue ratio: 6.27 ± 0.44
[2]; tumor and pancreas, blocked with 150 nmol unlabeled NeoB, n = 1, read-out: Tumor-to-pancreas ratio
  tissue to tissue ratio: 2.95
[2]; tumor and pancreas, non-blocked, n = 3, read-out: Tumor-to-pancreas ratio
  tissue to tissue ratio: 0.72 ± 0.08
[2]; blood, blocked with 150 nmol unlabeled NeoB, n = 1, read-out: Blood uptake
  tissue uptake at 3 h: 13.9 %ID/g
[2]; blood, non-blocked, n = 3, read-out: Blood uptake
  tissue uptake at 3 h: 18.3 ± 2.12 %ID/g
[2]; bone, blocked with 150 nmol unlabeled NeoB, n = 1, read-out: Bone uptake
  tissue uptake at 3 h: 2.82 %ID/g
[2]; bone, non-blocked, n = 3, read-out: Bone uptake
  tissue uptake at 3 h: 3.05 ± 0.74 %ID/g
[2]; brain, blocked with 150 nmol unlabeled NeoB, n = 1, read-out: Brain uptake
  tissue uptake at 3 h: 0.51 %ID/g
[2]; brain, non-blocked, n = 3, read-out: Brain uptake
  tissue uptake at 3 h: 0.67 ± 0.28 %ID/g
[2]; cecum, blocked with 150 nmol unlabeled NeoB, n = 1, read-out: Cecum uptake
  tissue uptake at 3 h: 2.31 %ID/g
[2]; cecum, non-blocked, n = 3, read-out: Cecum uptake
  tissue uptake at 3 h: 5.21 ± 1.94 %ID/g
[2]; heart, blocked with 150 nmol unlabeled NeoB, n = 1, read-out: Heart uptake
  tissue uptake at 3 h: 3.27 %ID/g
[2]; heart, non-blocked, n = 3, read-out: Heart uptake
  tissue uptake at 3 h: 5.43 ± 0.69 %ID/g
[2]; kidneys, blocked with 150 nmol unlabeled NeoB, n = 1, read-out: Kidneys uptake
  tissue uptake at 3 h: 18.2 %ID/g
[2]; kidneys, non-blocked, n = 3, read-out: Kidneys uptake
  tissue uptake at 3 h: 15.4 ± 0.5 %ID/g
[2]; large intestine, blocked with 150 nmol unlabeled NeoB, n = 1, read-out: Large intestine uptake
  tissue uptake at 3 h: 2.35 %ID/g
[2]; large intestine, non-blocked, n = 3, read-out: Large intestine uptake
  tissue uptake at 3 h: 5.6 ± 1.44 %ID/g
[2]; liver, blocked with 150 nmol unlabeled NeoB, n = 1, read-out: Liver uptake
  tissue uptake at 3 h: 8.93 %ID/g
[2]; liver, non-blocked, n = 3, read-out: Liver uptake
  tissue uptake at 3 h: 8.87 ± 0.65 %ID/g
[2]; lungs, blocked with 150 nmol unlabeled NeoB, n = 1, read-out: Lungs uptake
  tissue uptake at 3 h: 18.9 %ID/g
[2]; lungs, non-blocked, n = 3, read-out: Lungs uptake
  tissue uptake at 3 h: 6.77 ± 1.73 %ID/g
[2]; muscle, blocked with 150 nmol unlabeled NeoB, n = 1, read-out: Muscle uptake
  tissue uptake at 3 h: 1.28 %ID/g
[2]; muscle, non-blocked, n = 3, read-out: Muscle uptake
  tissue uptake at 3 h: 1.1 ± 0.09 %ID/g
[2]; pancreas, blocked with 150 nmol unlabeled NeoB, n = 1, read-out: Pancreas uptake
  tissue uptake at 3 h: 1.49 %ID/g
[2]; pancreas, non-blocked, n = 3, read-out: Pancreas uptake
  tissue uptake at 3 h: 9.72 ± 1.63 %ID/g
[2]; prostate, blocked with 150 nmol unlabeled NeoB, n = 1, read-out: Prostate uptake
  tissue uptake at 3 h: 1.42 %ID/g
[2]; prostate, non-blocked, n = 3, read-out: Prostate uptake
  tissue uptake at 3 h: 3.27 ± 0.74 %ID/g
[2]; small intestine, blocked with 150 nmol unlabeled NeoB, n = 1, read-out: Small intestine uptake
  tissue uptake at 3 h: 1.97 %ID/g
[2]; small intestine, non-blocked, n = 3, read-out: Small intestine uptake
  tissue uptake at 3 h: 3.79 ± 0.69 %ID/g
[2]; spleen, blocked with 150 nmol unlabeled NeoB, n = 1, read-out: Spleen uptake
  tissue uptake at 3 h: 5.05 %ID/g
[2]; spleen, non-blocked, n = 3, read-out: Spleen uptake
  tissue uptake at 3 h: 5.86 ± 1.7 %ID/g
[2]; stomach, blocked with 150 nmol unlabeled NeoB, n = 1, read-out: Stomach uptake
  tissue uptake at 3 h: 3.48 %ID/g
[2]; stomach, non-blocked, n = 3, read-out: Stomach uptake
  tissue uptake at 3 h: 4.4 ± 1.04 %ID/g
[2]; tumor, blocked with 150 nmol unlabeled NeoB, n = 1, read-out: Tumor uptake
  tissue uptake at 3 h: 4.39 %ID/g
[2]; tumor, non-blocked, n = 3, read-out: Tumor uptake
  tissue uptake at 3 h: 6.9 ± 0.81 %ID/g
[3]; [4]
  Tumor-to-blood ratio: 0.32
  Tumor-to-prostate ratio: 3.09
[3]; non-blocked, n = 3
  Tumor-to-prostate ratio: 2.16 ± 0.46
